Results reported in article PMC6056538.

Columns and labels:
[1] = biological target: T1 with SpyCatcher, flanked by six residue glycine-serine linkers, inserted on the lumenal side (Haliangium ochraceum | not stated); experiment: fluorescence intensity of purified shells; number of cfp cargo proteins per shell calculated from fluorescence intensity values of shells loaded in vivo and purified by CAP and anion exchange
[2] = biological target: T1 with SpyTag, flanked by six residue glycine-serine linkers, inserted on the lumenal side (Haliangium ochraceum | not stated); experiment: as above

SpyTag-mTurquoise2-6xHis (SpyTagged cyan fluorescent protein cargo)
cfp cargo copies per shell (copies per shell) [1]: 73

SpyCatcher-mTurquoise2-6xHis (SpyCatcher-fused cyan fluorescent protein cargo)
cfp cargo copies per shell (copies per shell) [2]: 58
